Test results from US20210207126A1 (ADAGENE, published 2021).
Changes are numbered by the printed parent chain. One block for each binder: values may come before it.

Assays:
[1] = biological target: T1, Recombinant human CTLA4-Fc (human, UniProt P16410 36-161, limits assumed); experiment: ELISA on plate-coated recombinant human CTLA4-Fc as in Example 3 (FIG. 24A)
T1 construct: Coated on the ELISA plate at 1 ug/mL; also called its antigen; not shown: Fc part
T1 sequence (looked up): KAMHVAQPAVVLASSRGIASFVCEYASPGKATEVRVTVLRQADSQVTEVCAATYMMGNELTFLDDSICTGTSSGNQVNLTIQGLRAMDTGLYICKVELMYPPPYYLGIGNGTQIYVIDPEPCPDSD
Protocol: (§1) Recombinant human CTLA4-Fc was diluted to 1 μg/mL in PBS and coated on a Maxisorp plate at 4° C. overnight. Plates were blocked with PBS supplemented with 3% non-fat milk at 37° C. for 1 hour. After washing, 100 μL of 3-fold serial dilutions of antibodies were added to each well. After incubation at 37° C. for 1 hour, plates were washed four times, and 100 μL HRP conjugated anti-human IgG (Fab specific) (1:6000 dilution) was added to each well. Plates were incubated at 37° C. for 1 hour, washed four times, and then 50 μL TMB substrate solution was added to each well, and the plate was incubated at room temperature. Absorbance at 450 nm was measured after the reactions were stopped with 50 μL H₂SO₄ per well. The EC₅₀ was evaluated by fitting the ELISA data using the asymmetrical sigmoidal (five-parameter logistic equation) model of GraphPad Prism 6 software.

[2] = biological target: T1, Recombinant human CTLA4-Fc; experiment: ELISA on plate-coated recombinant human CTLA4-Fc, before protease cleavage, data batch 1
Protocol: as §1

[3] = biological target: T1, Recombinant human CTLA4-Fc; experiment: ELISA on plate-coated recombinant human CTLA4-Fc, before protease cleavage, data batch 2
Protocol: as §1

[4] = biological target: T1, Recombinant human CTLA4-Fc; experiment: ELISA on plate-coated recombinant human CTLA4-Fc as in Example 3 (FIG. 24B)
Protocol: as §1

[5] = biological target: T1, Recombinant human CTLA4-Fc; experiment: ELISA on plate-coated recombinant human CTLA4-Fc, before protease cleavage, third block of Table 6 (set of FIG. 7C)
[6] = biological target: T1, Recombinant human CTLA4-Fc; experiment: ELISA on plate-coated recombinant human CTLA4-Fc as in Example 3 (FIG. 25)
Protocol: as §1

[7] = biological target: T1, Recombinant human CTLA4-Fc; experiment: ELISA on plate-coated recombinant human CTLA4-Fc, protease cleavage experiment, no treatment
Protocol: as §1
The purified activatable antibodies were treated with the proteases which recognize the cleavage sequences, and were then tested to determine whether removal of the masking peptide restored their activity.

[8] = biological target: T2, human CD137 displayed on yeast cells (human, UniProt Q07011 24-186, limits assumed); experiment: flow cytometry on yeast cells displaying human CD137, PE anti-human Fc (column head prints EC50 over KD (nM))
T2 construct: Yeast cells displaying human CD137 on their surface; also called human CD137 on the cell surface
Protocol: (§2) The masking efficiency was then measured through flow cytometry. Briefly, yeast cells displaying human CD137 on their surface washed twice with PBSA buffer, and 50 μL (1×10\hat{ }6) cells were dispensed into each well of a 96 well plate. Cells were then incubated with 3-fold serial dilutions of antibodies for 1 hour on ice, washed once with PBSA buffer, and then incubated with 100 μL of PE conjugated mouse anti-human Fc (1 μg/ml) for 30 minutes on ice. The cells were then washed once prior to analysis by flow cytometry (Beckman® CytoFlex).

[9] = biological target: T2, human CD137 displayed on yeast cells; experiment: flow cytometry on yeast cells displaying human CD137, PE anti-human Fc
Protocol: as §2

B1: TY22402 (antibody, V domains shown)
VH: EVQLVESGGGLVQPGGSLRLSCAASGYSISSGYHWSWIRQAPGKGLEWLARIDWDDDKYYSTSLKSRLTISRDNSKNTLYLQLNSLRAEDTAVYYCARSYVYFDYWGQGTLVTVSS
VL: EVGSYIVHHSDCDAFYPYCDSSGRSAGGGGSPLGLAGSGGSDIQLTQSPSSLSASVGDRVTITCRASQSVRGRFLAWYQQKPGKAPKLLIYDASNRATGIPSRFSGSGSGTDFTLTISSLQPEDFATYYCQQSSSWPPTFGQGTKVEIKR
notes: IgG1 from HEK293F cells; peptide fused to the N-terminus of the light chain of TY21580; also called masking peptide B13180
masking efficiency (EC50 / EC50 of parental TY21580) [1]: 243 fold
masking efficiency (EC50 / EC50 of parental TY21580) [2]: 2210 fold
masking efficiency (EC50 / EC50 of parental TY21580) [3]: 377 fold
masking efficiency (EC50 / EC50 of parental TY21580) [4]: 554 fold

B2: TY22775 (antibody, V domains shown)
VH: B1 VH
VL: EVGHSDCDAFYPYCDSSGRSAGGGGTPLGLAGSGGSDIQLTQSPSSLSASVGDRVTITCRASQSVRGRFLAWYQQKPGKAPKLLIYDASNRATGIPSRFSGSGSGTDFTLTISSLQPEDFATYYCQQSSSWPPTFGQGTKVEIKR
notes: TY22402 with the masking peptide shortened to 16 residues; expressed in mammalian cells; isotype not restated (parent construct IgG1)
masking efficiency (EC50 / EC50 of parental TY21580) [1]: 168 fold

B3: TY22565 (antibody, V domains shown)
VH: B1 VH
VL: EVGSYPQPSSDCVPYYYACAYSGRSAGGGGSPLGLAGSGGSDIQLTQSPSSLSASVGDRVTITCRASQSVRGRFLAWYQQKPGKAPKLLIYDASNRATGIPSRFSGSGSGTDFTLTISSLQPEDFATYYCQQSSSWPPTFGQGTKVEIKR
notes: IgG1; derived from B13197 to remove a potential glycosylation site
masking efficiency (EC50 / EC50 of parental TY21580) [5]: 632 fold

B4: TY22566 (antibody, V domains shown)
VH: B1 VH
VL: B3 VL with Q7N, S9A
notes: as for B3
masking efficiency (EC50 / EC50 of parental TY21580) [5]: 489 fold

B9: TY22404 (antibody, V domains shown)
VH: B1 VH
VL: B3 VL with Q7N
notes: IgG1 from HEK293F cells; peptide fused to the N-terminus of the light chain of TY21580; also called masking peptide B13197
masking efficiency (EC50 / EC50 of parental TY21580) [6]: 469 fold
masking efficiency (EC50 / EC50 of parental TY21580) [1]: 308 fold
masking efficiency (EC50 / EC50 of parental TY21580) [2]: 826 fold
masking efficiency (EC50 / EC50 of parental TY21580) [3]: 385 fold
masking efficiency (EC50 / EC50 of parental TY21580) [7]: 216 fold
masking efficiency (EC50 / EC50 of parental TY21580) [4]: 572 fold

B12: TY22598 (antibody, V domains shown)
VH: EVQLVESGGGLVQPGGSLRLSCAASGFSLSTGGVGVGWIRQAPGKGLEWLALIDWADDKYYSPSLKSRLTISRDNSKNTLYLQLNSLRAEDTAVYYCARGGSDTVIGDWFAYWGQGTLVTVSS
VL: EVGSYSNNFASCLWRHRSCADSGRSAGGGGSPLGLAGSGGSDIQLTQSPSSLSASVGDRVTITCRASQSIGSYLAWYQQKPGKAPKLLIYDASNLETGVPSRFSGSGSGTDFTLTISSLQPEDFATYYCQQGYYLWTFGQGTKVEIK
notes: Full IgG4 from mammalian cells; peptide fused to the N-terminus of the light chain of TY21242
Kd [8]: 8.61 nM
masking efficiency (against parental TY21242) [9]: 30.5 fold

B13: TY22596 (antibody, V domains shown)
VH: B12 VH
VL: EVGSYYHDYDDCRVLPRRCFNSGRSAGGGGSPLGLAGSGGSDIQLTQSPSSLSASVGDRVTITCRASQSIGSYLAWYQQKPGKAPKLLIYDASNLETGVPSRFSGSGSGTDFTLTISSLQPEDFATYYCQQGYYLWTFGQGTKVEIK
notes: as for B12
Kd [8]: 5.86 nM
masking efficiency (against parental TY21242) [9]: 20.8 fold

B16: TY22599 (antibody, V domains shown)
VH: B12 VH
VL: B13 VL with Y6T, H7D, D8N, D11Y, R13P, V14R, P16R, R18K, F20Y, N21H
notes: as for B12
Kd [8]: 98.1 nM
masking efficiency (against parental TY21242) [9]: 348 fold

More lines, now with the values ahead:

masking efficiency (EC50 / EC50 of parental TY21580) [2]: 110 fold
masking efficiency (EC50 / EC50 of parental TY21580) [3]: 48 fold
B5: TY22401 (antibody, V domains shown)
VH: B1 VH
VL: EVGSYNFVADSCPDHPYPCSASGRSAGGGGSPLGLAGSGGSDIQLTQSPSSLSASVGDRVTITCRASQSVRGRFLAWYQQKPGKAPKLLIYDASNRATGIPSRFSGSGSGTDFTLTISSLQPEDFATYYCQQSSSWPPTFGQGTKVEIKR
notes: IgG1 from HEK293F cells; masking and cleavage peptide fused to the N-terminus of the light chain of TY21580; also called masking peptide B13189

masking efficiency (EC50 / EC50 of parental TY21580) [5]: 144 fold
B6: TY22563 (antibody, V domains shown)
VH: B1 VH
VL: B1 VL with I6Y, V7S, H8A, H9Y, S10P, D11A, A14S, F15H, D20Q
notes: IgG1; derived from B13192 to remove a potential glycosylation site

masking efficiency (EC50 / EC50 of parental TY21580) [5]: 117 fold
B7: TY22564 (antibody, V domains shown)
VH: B1 VH
VL: B1 VL with I6Y, V7S, H8A, H9Y, S10P, D11A, A14S, F15H, D20N, S22A
notes: as for B6

masking efficiency (EC50 / EC50 of parental TY21580) [1]: 296 fold
B8: TY22776 (antibody, V domains shown)
VH: B1 VH
VL: B2 VL with H4S, D8V, A9P, F10Y, P12Y, Y13A, D15A, S16Y
notes: TY22404 with the masking peptide shortened to 16 residues; expressed in mammalian cells; isotype not restated (parent construct IgG1)

Kd [8]: 0.28 nM
masking efficiency (against parental TY21242) [9]: 1 fold
B10: TY21242 (antibody, V domains shown)
VH: B12 VH
VL: DIQLTQSPSSLSASVGDRVTITCRASQSIGSYLAWYQQKPGKAPKLLIYDASNLETGVPSRFSGSGSGTDFTLTISSLQPEDFATYYCQQGYYLWTFGQGTKVEIK
notes: also called parental antibody TY21242; parental CD137 antibody

Kd [8]: 10.8 nM
masking efficiency (against parental TY21242) [9]: 38.3 fold
B11: TY22591 (antibody, V domains shown)
VH: B12 VH
VL: EVGSYSSTHAHCHHSPANCISSGRSAGGGGSPLGLAGSGGSDIQLTQSPSSLSASVGDRVTITCRASQSIGSYLAWYQQKPGKAPKLLIYDASNLETGVPSRFSGSGSGTDFTLTISSLQPEDFATYYCQQGYYLWTFGQGTKVEIK
notes: as for B12

Kd [8]: 107 nM
masking efficiency (against parental TY21242) [9]: 379 fold
B14: TY22595 (antibody, V domains shown)
VH: B12 VH
VL: EVGSYNDYNYHCKWRPSRCHNSGRSAGGGGSPLGLAGSGGSDIQLTQSPSSLSASVGDRVTITCRASQSIGSYLAWYQQKPGKAPKLLIYDASNLETGVPSRFSGSGSGTDFTLTISSLQPEDFATYYCQQGYYLWTFGQGTKVEIK
notes: as for B12

Kd [8]: 23.6 nM
masking efficiency (against parental TY21242) [9]: 83.7 fold
B15: TY22594 (antibody, V domains shown)
VH: B12 VH
VL: B13 VL with Y6D, H7T, D11F, R13P, V14I, P16R, R17H, F20D, N21S
notes: as for B12
